Measurements as given in patent publication US12427188B2, “Pyocyanine demethylases and related phenazine degrading agents compositions, methods and systems for interfering with viability of bacteria” (priority 2020, dated 2025).

Tests used:
[1] = Protein yield of PodA variants purified from inclusion bodies of overexpression culture
Experimental: Protein overproduction and purification of soluble and inclusion body fractions. Plasmids coding for proteins of interest were transformed into E. coli BL21 […]. […]. Cultures were grown at 37° C. with shaking to an optical density of 0.4 (OD600 nm) and plasmid expression was induced with IPTG (50 μM) and shaken overnight at 16° C. Cells were harvested by centrifugation at 5,000×g for 10 min in a Beckman Coulter Avanti J-20 XOI refrigerated centrifuge using a JLA-8.1000 rotor at 4° C. Cell pellets were stored at −80° C. until used.
For purification of PodA from inclusion bodies, the pellets remaining following lysis and centrifugation at 40,000×g were resuspended in 20 mL of detergent buffer [50 mM HEPES (pH 7.5) and 1% Triton-X (v/v)] using a Bio-gen PRO200 cell homogenizer (PRO Scientific). Sample was spun for 15 min at 40,000×g at 4° C. in a Beckman Coulter Avanti centrifuge with a JA-25.50 rotor. Supernatant was discarded and the remaining cell pellet was resuspended in 5 mL of buffer [50 mM HEPES (pH 7.5), 500 mM NaCl] using a cell homogenizer, supplemented with lysozyme (200 μg mL^−1), and incubated for 10 min. Volume was increased to 20 mL with HEPES (50 mM, pH 7) and sample was spun for 40,000×g at 4° C. for 15 min. Supernatant was discarded and pellet was homogenized in 10 mL of denaturing buffer 50 mM HEPES (pH 7.5), 500 mM NaCl, and 8M urea) and incubating rocking overnight. The sample was spun at for 40,000×g at 25° C. for 30 min and supernatant was incubated with 1 mL HisPur Ni-NTA resin (Thermo Fisher Scientific) on a rocking platform for 10 min. Beads were allowed to settle without shaking, supernatant was discarded, and resin was pipetted into glass gravity columns. Resin was washed with 15 mL of denaturing buffer, followed by an elution with denaturing buffer supplemented with imidazole (500 mM). Fractions were analyzed by SDS-PAGE and those containing protein were combined into SnakeSkin 3.5 K MWCO dialysis tubing (Thermo Fisher Scientific). Urea was slowly dialyzed out in HEPES (50 mM, pH 7.5) and NaCl (500 mM) by lowing urea concentrations by 1 M increments. Each step was dialyzed at RT for 30 min. Protein was dialyzed in HEPES (50 mM, pH 7.5), NaCl (500 mM), and imidazole (20 mM) overnight at 4° C. The following day, protein was cleaved for 3 h at 25° C. with TEV protease (1:50 mg:mg ratio of TEV to PodA). The sample was applied to a HisPur gravity column and cleaved protein in the flow thru was confirmed by SDS-PAGE. Cleaved PodA protein was then dialyzed for storage for 3 h at 4° C. in HEPES (50 mM pH 7.5), NaCl (250 mM) and finally in HEPES (50 mM, pH 7.5), NaCl (100 mM), and glycerol (20%, v/v). Protein concentration was established on a NanoDrop™ using the extinction coefficient and MW of each protein. Protein was drop frozen in LN2 and stored at −80° C. until use.

[2] = Continuous spectrophotometric PYO demethylation assay (specific activity and kinetics of PodA); assay type: biochemical
Experimental: Specific activity and kinetics of PodA. To determine specific activity and kinetic parameters of PodA for PYO, a continuous spectrophotometric assay monitoring the absorbance of PYO (690 nm) was utilized. Briefly, assays were performed at 25° C. in 100 μL reaction volumes in 96-well plates and reactions were monitored at 690 nm over 10 min. Reaction mixtures contained Phosphate buffer (50 mM, pH 6.0), ethylene glycol (1%, v/v), protein (3 μM) and substrate (for specific activity, 100 μM, for kinetics, varying). Data were acquired using the SpectraMax® M3 Microplate Reader (Molecular Devices) using the Soft Max Pro software every 10 s over 10 min. Path lengths for each well were calculated using Soft Max Pro endpoint readings and slopes were corrected for path lengths of 1 cm.
Specific activity was calculated from the slope of the linear range of (ΔOD690 min^−1) using Beer's Law (A=εcl) with a path length of 1 cm and the molar extinction coefficient of PYO (4,130 M^−1 cm^−1). Equation was solved for c, giving specific activity in nmol min^−1 mg^−1 of PodA. For kinetic parameters, graphs of initial velocity (μM s^−1) versus substrate concentration (μM) were plotted using Prism v8 (GraphPad). The Michaelis-Menten kinetics model was used to determine Km and Vmax. The turnover number (kcat) was determined using the following equation: Vmax=kcat[E], where [E] was the concentration of PodA added. All spectrophotometric assays mentioned above were completed thrice, each in technical triplicate with a representative data set shown. Error bars represent standard deviation as calculated by Prism v8 (GraphPad). Standard deviation for kcat and Kcat KM^−1 was calculated using standard formulas for propagation of error.

[3] = test system: Pseudomonas aeruginosa; test: Crystal violet biofilm assay; assay type: cell-based; conditions: 24 h incubation, protein added from the beginning
Experimental: Crystal violet assay. Pseudomonas aeruginosa grown overnight in LB were inoculated (1.5%, v/v) and grown for 24 h at 37° C. in 96-well round bottom plates in minimal medium (100 μL) with arginine (40 mM) as the sole carbon source. PodA was added with cells simultaneously and was present during growth and biofilm development. Planktonic cells were removed and attached cells were quantified with crystal violet staining (125 μL. 0.1% w/v), followed by washes with water and de-staining with an acetic acid (30%, v/v) mixture in water. Crystal violet was measured using a SpectraMax® M3 Microplate Reader (Molecular Devices) at an absorbance of 550 nm. Details of procedure were published previously (28)[43].

[4] = test system: Pseudomonas aeruginosa aggregate biofilms; conditions: previous experiments, succinate-minimal medium, 27 hours; cited from earlier work
[5] = pH 6, 1% ethylene glycol, PodA 3 μM, substrate PYO

B1: WT PodA41-162: Truncated wild-type pyocyanin demethylase from Mycobacterium fortuitum (MFORT_14352) lacking N-terminal membrane helix, SEQ ID NO: 3 (protein)
chain: VTMTLDVKNDQVAKHDFGKPGMDVGDMDIFSDILSVDGKQVGYDGGACFFTNVTPDNPMTYCELTIHLDAGEIFARSLTPHTLAPFTMAITGGTGEYANSKGELTVSGVATPDEKYELKLTK
- protein yields ([1]; per L of bacterial culture, typical): ~0.3 mg/L
- Yield ([1]; purified from inclusion bodies, per L of E. coli overexpression culture): 0.33 mg/L^−1
- pH of optimal activity ([2]; buffers pH 5.5-10.0, PodA 3 μM, PYO 100 μM): 6
- Effect of salts (NaCl and KCl) on activity ([2]; cystic fibrosis sputum range, 66 mM Na+, 15 mM K+): did not inhibit or enhance
- Km [2, 5]: 372 µM
- catalytic efficiency [2, 5]: 4.74±0.24×10^2 M^−1 s^−1
- kcat [2, 5]: 0.176 ± 0.003 s⁻¹
- Effect of slight increase in viscosity (ethylene glycol or glycerol 1% v/v) on activity ([2]; pH 6, PodA 3 μM, PYO 100 μM): enhanced
- catalytic efficiency ([2]; protein from soluble fraction): 1.05±0.093×10^2 M^−1 s^−1
- catalytic efficiency ([2]; protein purified from inclusion bodies, denatured and refolded): 1.14±0.25×10^2 M^−1 s^−1
- biofilm attachment (crystal violet) [3]: biofilm attachment defect
- aggregate development in ABBA [4]: smaller aggregates in anoxic regions of the agar
